Test [1] concerns the target T1, human corticotrophin releasing hormone receptor type 2 (CRHR2) (human) (UniProt Q13324).
T1 sequence (looked up): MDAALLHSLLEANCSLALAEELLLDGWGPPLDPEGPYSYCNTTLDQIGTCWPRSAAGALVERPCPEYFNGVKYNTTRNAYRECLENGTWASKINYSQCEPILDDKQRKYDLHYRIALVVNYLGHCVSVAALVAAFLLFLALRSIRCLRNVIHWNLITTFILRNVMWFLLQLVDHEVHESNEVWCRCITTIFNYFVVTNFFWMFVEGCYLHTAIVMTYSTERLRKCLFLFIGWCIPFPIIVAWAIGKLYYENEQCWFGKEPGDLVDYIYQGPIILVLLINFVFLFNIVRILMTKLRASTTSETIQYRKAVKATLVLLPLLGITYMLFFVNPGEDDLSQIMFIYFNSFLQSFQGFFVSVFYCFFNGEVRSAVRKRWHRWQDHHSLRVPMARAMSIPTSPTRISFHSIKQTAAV
Description: cell-based or functional assay.

For test [2], the target named is T2, human corticotrophin releasing hormone receptor type 1 (CRHR1) (human, UniProt P34998 24-415).
T2 construct: whole, on cells; cAMP assay on whole cells; radioligand assay on cell membranes; also called h-CRHR1; CRH receptor type 1
T2 sequence (looked up): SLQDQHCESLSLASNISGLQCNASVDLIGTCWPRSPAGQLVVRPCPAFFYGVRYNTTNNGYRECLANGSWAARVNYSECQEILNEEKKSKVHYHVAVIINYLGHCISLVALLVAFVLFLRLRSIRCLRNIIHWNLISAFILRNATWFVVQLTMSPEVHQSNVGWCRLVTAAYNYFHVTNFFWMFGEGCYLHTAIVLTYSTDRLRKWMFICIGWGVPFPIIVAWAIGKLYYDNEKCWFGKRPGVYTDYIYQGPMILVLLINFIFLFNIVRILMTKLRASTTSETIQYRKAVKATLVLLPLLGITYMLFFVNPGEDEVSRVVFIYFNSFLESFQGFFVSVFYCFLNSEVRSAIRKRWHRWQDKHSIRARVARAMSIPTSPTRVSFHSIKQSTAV
Description: radioligand competition against [125I]-(Tyr0)-sauvagine, CRHR1 assay; ND = Not detectable.

Test [3] addresses T1, human corticotrophin releasing hormone receptor type 2 (CRHR2) (human). The experiment in a line: radioligand competition against [125I]-anti-sauvagine-30, membranes of SK-N-MC cells with human CRHR2.

“And” between values parts separate entries of the source, which are not always exact repeats. Equal entries are not always repeated. Where no end group is shown, it is not given here.

Turning to HPGSRIVLSLDVPIGLLQILLEQARARAAREQATTNARILARV-NH2 (also called h-SRP) [human stresscopin related peptide], in test [1], the pA50 was 9.32 -log10(M) and 9.58 -log10(M) and 9.23 -log10(M). Also, the binding result in test [2] is recorded as “no binding”. Moreover, in test [3], the pKI is 7.57 -log10(M).

Source of the values: US20110105397A1, “METHOD FOR TREATING HEART FAILURE WITH STRESSCOPIN-LIKE PEPTIDES” (priority 2009, published 2011).
